B1: PD1/LAG3 0927 (bispecific antibody, human IgG1, kappa, L234A L235A)
heavy 1: not shown
heavy 2: EVQLLESGGGLVQPGGSLRLSCAASGFIFDDYTMNWVRQAPGKGLEWVAVISWDGGGTYYTDSVKGRFTISRDDFKNTLYLQMNSLRAEDTAVYYCAKGLTDTTLYGSDYWGQGTLVTVSSASTKGPSVFPLAPSSKSTSGGTAALGCLVEDYFPEPVTVSWNSGALTSGVHTFPAVLQSSGLYSLSSVVTVPSSSLGTQTYICNVNHKPSNTKVDEKVEPKSCDKTHTCPPCPAPEAAGGPSVFLFPPKPKDTLMISRTPEVTCVVVDVSHEDPEVKFNWYVDGVEVHNAKTKPREEQYNSTYRVVSVLTVLHQDWLNGKEYKCKVSNKALGAPIEKTISKAKGQPREPQVCTLPPSRDELTKNQVSLSCAVKGFYPSDIAVEWESNGQPENNYKTTPPVLDSDGSFFLVSKLTVDKSRWQQGNVFSCSVMHEALHNHYTQKSLSLSPGK
light 1: EVQLLESGGGLVQPGGSLRLSCAASGFSFSSYTMSWVRQAPGKGLEWVATISGGGRDIYYPDSVKGRFTISRDNSKNTLYLQMNSLRAEDTAVYYCVLLTGRVYFALDSWGQGTLVTVSSASVAAPSVFIFPPSDEQLKSGTASVVCLLNNFYPREAKVQWKVDNALQSGNSQESVTEQDSKDSTYSLSSTLTLSKADYEKHKVYACEVTHQGLSSPVTKSFNRGEC
light 2: not shown
notes: 1+1 CrossMAb Vh-VL, knobs into holes, IgG1 PGLALA
B2: PD1/LAG3 0799 (bispecific antibody, human IgG1, kappa, L234A L235A)
heavy 1: not shown
heavy 2: EVQLVESGGGLVQPGGSLRLACAASGFTFSDYAMSWVRQAPGKGLEWVSGIDNSGYYTYYTDSVKGRFTISRDDVKNTLYLQMNSLRAEDTAVYLCTKTHSGLIVNDAFDIWGQGTMVTVSSASTKGPSVFPLAPSSKSTSGGTAALGCLVEDYFPEPVTVSWNSGALTSGVHTFPAVLQSSGLYSLSSVVTVPSSSLGTQTYICNVNHKPSNTKVDEKVEPKSCDKTHTCPPCPAPEAAGGPSVFLFPPKPKDTLMISRTPEVTCVVVDVSHEDPEVKFNWYVDGVEVHNAKTKPREEQYNSTYRVVSVLTVLHQDWLNGKEYKCKVSNKALGAPIEKTISKAKGQPREPQVCTLPPSRDELTKNQVSLSCAVKGFYPSDIAVEWESNGQPENNYKTTPPVLDSDGSFFLVSKLTVDKSRWQQGNVFSCSVMHEALHNHYTQKSLSLSPGK
light 1: B1 light 1
light 2: not shown
notes: as for B1

What was measured:
[1] = biological target: T1, recombinant Human LAG-3 Fc Chimera Protein (R&D Systems, 2319-L3) (human, UniProt P18627 29-450); assay: ELISA on coated Human LAG-3 Fc Chimera (rel. EC50)
T1 construct: Bought protein; also called huLAG3; not shown: Fc part of the chimera
T1 sequence: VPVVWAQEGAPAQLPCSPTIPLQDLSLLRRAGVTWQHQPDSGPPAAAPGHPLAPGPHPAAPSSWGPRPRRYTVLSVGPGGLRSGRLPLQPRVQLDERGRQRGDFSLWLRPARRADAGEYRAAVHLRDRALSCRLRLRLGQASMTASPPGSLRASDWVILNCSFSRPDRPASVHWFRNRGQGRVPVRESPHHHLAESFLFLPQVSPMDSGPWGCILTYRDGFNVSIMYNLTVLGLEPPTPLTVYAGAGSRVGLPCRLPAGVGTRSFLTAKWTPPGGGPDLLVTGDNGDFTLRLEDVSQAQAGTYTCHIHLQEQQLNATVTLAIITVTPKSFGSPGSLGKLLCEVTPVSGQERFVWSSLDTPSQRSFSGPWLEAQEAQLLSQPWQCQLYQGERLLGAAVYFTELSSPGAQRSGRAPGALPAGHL
Procedure, shortened: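 Wells blocked 1 h at RT in PBS + 2% BSA + 0.05% Tween 20; bound antibody detected with goat anti-human Ig κ-HRP (1:2000, 1 h RT), then TMB substrate for 2-10 min. Absorbance read at 370/492 nm.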

[2] = biological target: T2, LAG3 on PD1+LAG3+ human U2OS cells (Homo sapiens (Human), UniProt P18627 23-525); assay: cellular PD1/LAG3 dimerization assay on PD1+LAG3+ U2OS cells, chemoluminescence; the signal needs PD1 and LAG3 bound at once
T2 construct: also called cellular LAG3 (dimerization assay); not shown: subunit of the reporter enzyme fused to the cytosolic C-terminus
T2 sequence: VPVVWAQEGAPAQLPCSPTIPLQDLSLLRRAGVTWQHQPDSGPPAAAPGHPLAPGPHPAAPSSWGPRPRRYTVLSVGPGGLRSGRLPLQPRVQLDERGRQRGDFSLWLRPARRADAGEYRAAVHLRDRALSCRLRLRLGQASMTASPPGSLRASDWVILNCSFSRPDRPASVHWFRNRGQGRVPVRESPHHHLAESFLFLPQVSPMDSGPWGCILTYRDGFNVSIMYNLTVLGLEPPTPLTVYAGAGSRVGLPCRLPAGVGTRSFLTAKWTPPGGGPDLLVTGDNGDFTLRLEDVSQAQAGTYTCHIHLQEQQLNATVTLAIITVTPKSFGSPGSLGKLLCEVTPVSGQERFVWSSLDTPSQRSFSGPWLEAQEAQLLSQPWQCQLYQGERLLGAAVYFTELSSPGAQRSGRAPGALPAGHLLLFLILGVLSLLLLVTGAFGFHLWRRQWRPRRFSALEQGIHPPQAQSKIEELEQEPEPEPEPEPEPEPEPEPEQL
Description: (§1) For this specific interaction, the cytosolic C-terminal ends of both receptors were individually fused to heterologous subunits of a reporter enzyme.
(§2) On the next day cell medium was discarded and replaced by fresh medium. Antibody or ligand dilutions were prepared and titrated amounts of indicated (bispecific) antibodies were added and incubated at 37° C. for 2 hours. Next, a substrate/buffer mix (e.g. PathHunterFlash detection reagent) was added and again incubated for 1h. For measuring chemoluminescence induced upon simultaneous binding and dimerization a Tecan infinite reader was used.

[3] = biological target: T3, PD1 on PD1+LAG3+ human U2OS cells (UniProt Q15116 25-288); assay: as above
T3 sequence (Q15116 25-288): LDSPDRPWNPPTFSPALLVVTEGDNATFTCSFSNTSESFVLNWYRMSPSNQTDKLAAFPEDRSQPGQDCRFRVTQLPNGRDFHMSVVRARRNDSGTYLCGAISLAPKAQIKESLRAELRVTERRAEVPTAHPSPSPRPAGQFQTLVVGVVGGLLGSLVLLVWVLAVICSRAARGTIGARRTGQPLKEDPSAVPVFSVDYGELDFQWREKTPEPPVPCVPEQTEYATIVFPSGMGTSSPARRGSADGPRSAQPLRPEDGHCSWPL
Description: as §1, §2

[4] = biological target: T4, LAG3 on cells (recombinant CHO cells expressing Lag3) (human, UniProt P18627 29-525); assay: cell ELISA on recombinant CHO cells expressing Lag3 (rel. EC50)
T4 construct: The cell ELISA paragraphs say only 'Lag3'; also called CHO-LAG3; Lag3 cells
T4 sequence: T2 sequence

[5] = biological target: T5, biotinylated PD1-ECD-AviHis (human, UniProt Q15116 25-170, biotinylated); assay: ELISA on coated biotinylated PD1-ECD-AviHis (rel. EC50)
T5 construct: also called huPD1; hu PD1; not shown: Avi-His tag
T5 sequence (Q15116 25-170): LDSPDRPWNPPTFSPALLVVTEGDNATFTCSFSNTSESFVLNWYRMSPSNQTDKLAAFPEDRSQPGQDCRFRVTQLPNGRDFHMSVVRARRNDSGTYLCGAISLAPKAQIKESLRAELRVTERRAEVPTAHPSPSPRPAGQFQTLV
Description: After washing (3×90 μl/well with PBST-buffer) 25 μl/well goat-anti-human H+L-POD (JIR, JIR109-036-098) was added in 1:5000 dilution and incubated at RT for 1 h on a shaker. After washing (3×90 μl/well with PBST-buffer) 25 μl/well of TMB substrate (Roche, 11835033001) was added and incubated until OD 2-3. Measurement took place at 370/492 nm.

[6] = biological target: T3, PD1 on PD1+LAG3+ human U2OS cells; assay: cell-based or functional assay

Binder | EC50 [1] [pM] | EC50 (read off the curve) [2] [µg/mL] | EC50 (read off the curve) [3] [µg/mL] | EC50 [4] [pM] | EC50 [5] [pM] | EC50 [pM], dimerization binding assay (chemoluminescence) [6] [pM]
B1 | 180 | ~0.02 | ~0.02 | 230 | 70 | 41
B2 | 70 | ~0.02 | ~0.02 | 200 | 60 | 76
